According to the supplement of paper PMC10126150:
± gives the standard deviation of the averaged measurements.

System: ATP
Test: switch fluorescence ratio, 500 uM ATP over buffer (Cy3 cluster intensity, sum of 5 cycles each) (fold (ratio)); higher = stronger signal-on switching upon ATP binding; sequences stand for … in TCGTCGGCAGCGTCAGATGTGTATAAGAGACAGTTTTTTTTTTTTTTTTTTTTTTTTT…TC
Conditions: aptamer strand: ATP DNA aptamer (quencher-CACCTGGGGGAGTATTGCGGAGGAAGG + anchor), 100 nM annealed; ATP concentration: 500 uM
Procedure, shortened: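 The quencher-labelled ATP aptamer, at 100 nM, was annealed to Cy3-labelled switching-strand clusters on a modified Illumina MiSeq flow-cell. The clusters were imaged in selection buffer, then after 15 min with 500 uM ATP at 22 °C, and this buffer/ATP cycle ran five times with NaOH stripping and re-annealing between runs. Per-cluster fluorescence ratios, summed target-cycle over summed buffer-cycle Cy3 intensity, were averaged per switch-domain sequence. Clusters outside 100-1000 RFU were excluded.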
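Note: ATP exposure 15 min at 22 °C before imaging.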

Row | Sequence | switch fluorescence ratio
1 | CCTTGTTTGG | 1.01 ± 0.011
2 | CCTTTAATGT | 1.01 ± 0.022
3 | CCTTTCGACA | 2.08 ± 0.26
4 | CCTTTCGGGA | 1.73 ± 0.87
5 | CCTTTCTATT | 0.99 ± 0.018
6 | CCTTTGTATT | 1.04 ± 0.031
7 | CCTTTGTTAT | 1.052 ± 0.0082
8 | CCTTTGTTGG | 1.01 ± 0.013
9 | CCTTTTCAGC | 1.12 ± 0.025
10 | CCTTTTTATG | 1.024 ± 0.0028
11 | CCTTTTTATT | 0.9882 ± 0.0064
12 | CCTTTTTGAA | 0.986 ± 0.049
13 | CGAAAAGGCT | 1.01 ± 0.016
14 | CGAAAAGTTT | 0.994 ± 0.023
15 | CGAAAATGGT | 1.04 ± 0.13
16 | CGAAACAGCA | 1.012 ± 0.0064
17 | CGAAAGATGG | 1 ± 0.034
18 | CGAAAGATGT | 0.9857 ± 0.0025
19 | CGAAAGGAA | 1.01 ± 0.011
20 | CGAAATGCGG | 0.982 ± 0.036
21 | CGAACCGTCA | 1.08 ± 0.028
22 | CGAACCTGGA | 1.37 ± 0.076
23 | CGAACGGATG | 1.0156 ± 0.00041
24 | CGAACGGATT | 1.06 ± 0.054
25 | CGAACGGTTG | 1.0261 ± 1.1e-05

Row | Sequence | switch fluorescence ratio
26 | CGAACGTCAG | 1.04 ± 0.012
27 | CGAACTTGTG | 1.01 ± 0.015
28 | CGAACTTTTG | 0.984 ± 0.018
29 | CGAAGATCGG | 1 ± 0.023
30 | CGAAGCGTCA | 1.081 ± 0.0014
31 | CGAAGGATTG | 0.992 ± 0.015
32 | CGAAGGGAAA | 1.12 ± 0.19
33 | CGAAGGTAGG | 0.9843 ± 0.0049
34 | CGAAGTGGCC | 1.02 ± 0.016
35 | CGAATCGCCT | 1 ± 0.022
36 | CGAATGGCGT | 1.029 ± 0.0063
37 | CGAATTAGAA | 0.982 ± 0.042
38 | CGAATTTTCG | 0.976 ± 0.012
39 | CGACAAGCAG | 1.09 ± 0.026
40 | CGACAATGTA | 1.17 ± 0.018
41 | CGACATCGGA | 1.02 ± 0.017
42 | CGACCGAACA | 1.09 ± 0.014
43 | CGACCGGGGG | 1.11 ± 0.094
44 | CGACGGAAGG | 1.25 ± 0.06
45 | CGACGGTGAA | 1.09 ± 0.022
46 | CGACGTGAGT | 1.036 ± 0.0042
47 | CGACTCGACG | 1.013 ± 0.006
48 | CGACTGATAT | 1.078 ± 0.0078
49 | CGACTTTTAG | 0.959 ± 0.021
50 | CGAGAATTGT | 0.9301 ± 0.0053

Row | Sequence | switch fluorescence ratio
51 | CGAGAGGAGG | 1.01 ± 0.02
52 | CGAGAGGAGT | 0.997 ± 0.014
53 | CGAGAGGGTG | 1.03 ± 0.02
54 | CGAGATCAAG | 0.971 ± 0.013
55 | CGAGATGGTT | 0.973 ± 0.025
56 | CGAGCAGTAG | 3.57 ± 0.31
57 | CGAGCAGTTA | 1.19 ± 0.074
58 | CGAGCCCTTG | 1.027 ± 0.0065
59 | CGAGCCTGGT | 1.02 ± 0.035
60 | CGAGCCTTAA | 1.09 ± 0.035
61 | CGAGCGGGTA | 0.989 ± 0.028
62 | CGAGCTCTCG | 1.002 ± 0.0075
63 | CGAGGATGTG | 0.964 ± 0.035
64 | CGAGGGAATG | 1.1 ± 0.18
65 | CGAGGGAGCA | 1.01 ± 0.025
66 | CGAGGGATCA | 0.9947 ± 0.0011
67 | CGAGGGCGGG | 0.999 ± 0.016
68 | CGAGGGGGG | 0.997 ± 0.015
69 | CGAGGGGGGT | 1.02 ± 0.027
70 | CGAGGGGGTA | 1.02 ± 0.077
71 | CGAGGGTAGG | 1.04 ± 0.025
72 | CGAGGGTCGG | 1.01 ± 0.042
73 | CGAGGGTGAG | 1.01 ± 0.042
74 | CGAGGTAGTT | 0.975 ± 0.026
75 | CGAGGTCAGT | 1.044 ± 0.01

Row | Sequence | switch fluorescence ratio
76 | CGAGGTGGCG | 0.958 ± 0.06
77 | CGAGGTTTTC | 0.9817 ± 0.0056
78 | CGAGTAGGAA | 0.984 ± 0.017
79 | CGAGTAGGTT | 1.01 ± 0.011
80 | CGAGTATGGA | 0.9923 ± 0.0042
81 | CGAGTCAGA | 1.067 ± 0.0096
82 | CGAGTCGACG | 0.99 ± 0.07
83 | CGAGTCGCGA | 1.04 ± 0.062
84 | CGAGTGAAAT | 1 ± 0.018
85 | CGAGTGAATC | 1.01 ± 0.019
86 | CGAGTGGAGG | 1.03 ± 0.011
87 | CGAGTGGCGA | 1.077 ± 0.0022
88 | CGAGTGGCGG | 0.968 ± 0.023
89 | CGAGTGGGGA | 1.04 ± 0.041
90 | CGAGTTAATT | 1.014 ± 0.0097
91 | CGAGTTAGGG | 0.9906 ± 0.0021
92 | CGAGTTTTGC | 1.03 ± 0.026
93 | CGAGTTTTTT | 1 ± 0.021
94 | CGATACACGT | 1.04 ± 0.029
95 | CGATAGATGA | 0.993 ± 0.018
96 | CGATATATTA | 0.9874 ± 0.0053
97 | CGATATATTG | 0.988 ± 0.013
98 | CGATATTGCC | 0.9909 ± 0.0097
99 | CGATCAATAT | 2.38 ± 0.035
100 | CGATCCGCGG | 0.942 ± 0.14

Row | Sequence | switch fluorescence ratio
101 | CGATGAGTTT | 1.01 ± 0.033
102 | CGATGATGGA | 0.999 ± 0.017
103 | CGATGCGGTG | 1.05 ± 0.033
104 | CGATGGCGTT | 0.96 ± 0.016
105 | CGATGGCTA | 0.965 ± 0.041
106 | CGATGTAGGT | 1.02 ± 0.025
107 | CGATGTAGTA | 1.016 ± 0.0058
108 | CGATGTATTT | 1.01 ± 0.048
109 | CGATGTGGGT | 0.989 ± 0.044
110 | CGATGTTTAG | 0.986 ± 0.019
111 | CGATTACGAT | 1.01 ± 0.03
112 | CGATTAGGGG | 1 ± 0.012
113 | CGATTAGTTG | 0.998 ± 0.032
114 | CGATTCTCAA | 1.021 ± 0.0006
115 | CGATTCTGAG | 1 ± 0.024
116 | CGATTGCGTG | 1 ± 0.05
117 | CGATTGTCTG | 0.958 ± 0.02
118 | CGATTGTGCG | 1.04 ± 0.029
119 | CGATTTCAGA | 1.009 ± 0.01
120 | CGATTTGGGT | 1.02 ± 0.042
121 | CGATTTGTAA | 0.99 ± 0.031
122 | CGATTTTCCT | 1.01 ± 0.015
123 | CGATTTTGAT | 1.01 ± 0.013
124 | CGCAAAATTT | 1.11 ± 0.11
125 | CGCAAAGGGG | 1.39 ± 0.29

Row | Sequence | switch fluorescence ratio
126 | CGCACAGTCA | 1.06 ± 0.023
127 | CGCACGGGGG | 1.01 ± 0.031
128 | CGCAGTTTTA | 1.055 ± 0.0065
129 | CGCATGTACG | 1.14 ± 0.16
130 | CGCATTAAGG | 1.11 ± 0.03
131 | CGCCAGCAGC | 1.6 ± 0.035
132 | CGCCCTCAAG | 1.03 ± 0.029
133 | CGCCGAGTTT | 1.05 ± 0.071
134 | CGCCGTCTGG | 1.03 ± 0.0039
135 | CGCCTCGAGG | 0.9786 ± 0.0027
136 | CGCCTGGCTT | 1 ± 0.013
137 | CGCCTTAATT | 1.01 ± 0.042
138 | CGCGAGGGCC | 1.1 ± 0.08
139 | CGCGATATTG | 1.58 ± 0.018
140 | CGCGCGGAAC | 0.98 ± 0.019
141 | CGCGGAGGGT | 0.967 ± 0.016
142 | CGCGGCAGGA | 1.02 ± 0.019
143 | CGCGGGATGT | 1.02 ± 0.045
144 | CGCGGGGAGC | 1.07 ± 0.088
145 | CGCGGGGGGT | 0.992 ± 0.018
146 | CGCGGGTATT | 1.02 ± 0.017
147 | CGCGGGTGGT | 1.02 ± 0.012
148 | CGCGGGTTCA | 1.03 ± 0.037
149 | CGCGGTTGAC | 1.12 ± 0.03
150 | CGCGTACATT | 1.05 ± 0.077

Row | Sequence | switch fluorescence ratio
151 | CGCGTACGGA | 0.989 ± 0.005
152 | CGCGTTATGT | 1.03 ± 0.0081
153 | CGCGTTGTGG | 1.03 ± 0.012
154 | CGCTACAATG | 1.0456 ± 0.00099
155 | CGCTAGGAGG | 0.997 ± 0.036
156 | CGCTAGGGGA | 1.07 ± 0.041
157 | CGCTAGGGGG | 1.06 ± 0.026
158 | CGCTCAAGGG | 1.031 ± 0.0042
159 | CGCTCGTATT | 1.019 ± 0.009
160 | CGCTCTGCGT | 1.01 ± 0.033
161 | CGCTGAAAGG | 1.02 ± 0.026
162 | CGCTGACATT | 1.019 ± 0.0034
163 | CGCTGAGAGG | 1 ± 0.027
164 | CGCTGCTCGA | 1.06 ± 0.013
165 | CGCTGGTTGT | 0.9855 ± 0.0013
166 | CGCTTATATC | 2.8 ± 0.32
167 | CGCTTATTAA | 1.072 ± 0.0033
168 | CGCTTCGTGA | 1.06 ± 0.059
169 | CGCTTGCCAG | 0.972 ± 0.027
170 | CGCTTTGGCG | 0.959 ± 0.061
171 | CGCTTTGGGT | 0.99 ± 0.018
172 | CGGAAAAAAT | 1.19 ± 0.19
173 | CGGAAAAGGG | 0.993 ± 0.064
174 | CGGAAAATGT | 0.962 ± 0.016
175 | CGGAACATGC | 1.6 ± 0.12

Row | Sequence | switch fluorescence ratio
176 | CGGAACCACG | 1.08 ± 0.045
177 | CGGAACGCA | 2.01 ± 0.046
178 | CGGAACGCGA | 4.09 ± 0.093
179 | CGGAAGATTA | 0.9588 ± 0.0045
180 | CGGAAGCATT | 1.44 ± 0.017
181 | CGGAAGGCTT | 0.982 ± 0.0095
182 | CGGAAGTCTT | 0.992 ± 0.024
183 | CGGAAGTTGG | 0.996 ± 0.02
184 | CGGAATGATA | 1 ± 0.018
185 | CGGAATGGTA | 1.08 ± 0.067
186 | CGGAATGTGT | 1 ± 0.015
187 | CGGAATGTTT | 1.05 ± 0.057
188 | CGGACAGGGA | 1.03 ± 0.035
189 | CGGACAGGGT | 0.992 ± 0.013
190 | CGGACCGGAA | 1.011 ± 0.01
191 | CGGACGGGGG | 0.999 ± 0.036
192 | CGGACGTTGG | 0.973 ± 0.045
193 | CGGAGAAGGA | 0.98471 ± 0.00067
194 | CGGAGCGGCG | 1.042 ± 0.0095
195 | CGGAGGCAGG | 1.21 ± 0.28
196 | CGGAGGCGTT | 0.986 ± 0.041
197 | CGGAGGGGAA | 1 ± 0.014
198 | CGGAGGGGTA | 1.13 ± 0.16
199 | CGGAGGTAAG | 0.994 ± 0.011
200 | CGGAGTAACG | 1.04 ± 0.03
